Reference: patent US20150231232

Target: human IL-8 (UniProt P10145)
Sequence (P10145 28-99): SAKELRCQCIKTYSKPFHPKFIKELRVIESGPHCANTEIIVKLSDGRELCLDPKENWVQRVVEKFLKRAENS

SpyCEP expressed in the lumen of E. coli OMVs (OMVs containing SpyCEP)
hydrolysis of IL-8 (18% SDS-PAGE with silver staining): IL-8 was almost completely cleaved after 2 hours incubation with 30 µg OMVs containing SpyCEP
